# Data as given in patent US20070212390A1.
# B1: VEGF-D ΔN.IISS (human VEGF-D with R204,205S point mutations and lacking the N-terminal propeptide), O43915 87-354 (ligand)
# chain: ARQDYKDDDDKTRFAATFYDIETLKVIDEEWQRTQCSPRETCVEVASELGKSTNTFFKPPCVNVFRCGGCCNEESLICMNTSTSYISKQLFEISVPLTSVPELVPVKVANHTGCKCLPTAPRHPYSIISSSIQIPEEDRCSHSKKLCPIDMLWDSNKCKCVLQEENPLAGTEDHSHLQEPALCGPHMMFDEDRCECVCKTPCPKDLIQHPKNCSCFECKESLETCCQKHKLFHPDTCSCEDRCPFHTRPCASGKTACAKHCRFPKEKRAAQGPHSRKNP
# modifications: here or on the partner: the values are: fold lower activity vs mature VEGF-D
# Assays:
# [1] = target: chimeric receptor consisting of the extracellular domain of mouse VEGFR-2 and the cytoplasmic domain of the erythropoietin receptor, on Ba/F3 cells (mouse), P35918; assay: cell-based or functional assay
# [2] = target: chimeric receptor consisting of the extracellular domain of human VEGFR-3 and the cytoplasmic domain of the erythropoietin receptor, on Ba/F3 cells (human), P35916; assay: cell-based or functional assay
# Chain of chimeric receptor consisting of the extracellular domain of human VEGFR-3 and the cytoplasmic domain of the erythropoietin receptor, on Ba/F3 cells (human), P35916 (P35916 25-775 limits assumed, change not shown, form in doubt): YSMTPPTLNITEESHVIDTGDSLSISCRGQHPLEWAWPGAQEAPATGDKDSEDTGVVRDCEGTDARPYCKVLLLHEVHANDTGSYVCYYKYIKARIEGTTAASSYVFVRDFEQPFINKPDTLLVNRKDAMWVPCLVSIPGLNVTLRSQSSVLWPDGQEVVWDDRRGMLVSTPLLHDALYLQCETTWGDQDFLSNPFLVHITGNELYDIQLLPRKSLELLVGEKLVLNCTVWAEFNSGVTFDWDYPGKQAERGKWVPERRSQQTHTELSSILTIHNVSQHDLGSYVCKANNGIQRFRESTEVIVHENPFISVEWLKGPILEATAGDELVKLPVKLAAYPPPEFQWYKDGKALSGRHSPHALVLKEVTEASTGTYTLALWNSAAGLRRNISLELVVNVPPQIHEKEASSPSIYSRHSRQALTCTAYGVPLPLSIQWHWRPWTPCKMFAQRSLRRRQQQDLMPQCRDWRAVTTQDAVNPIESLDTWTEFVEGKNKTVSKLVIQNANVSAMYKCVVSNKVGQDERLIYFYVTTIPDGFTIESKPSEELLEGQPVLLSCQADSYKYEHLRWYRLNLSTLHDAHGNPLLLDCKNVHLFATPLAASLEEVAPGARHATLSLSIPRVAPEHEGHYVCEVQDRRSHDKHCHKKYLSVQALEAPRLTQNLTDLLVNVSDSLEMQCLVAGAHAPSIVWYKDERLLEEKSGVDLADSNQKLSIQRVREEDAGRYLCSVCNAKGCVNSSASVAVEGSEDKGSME
# Chain of chimeric receptor consisting of the extracellular domain of mouse VEGFR-2 and the cytoplasmic domain of the erythropoietin receptor, on Ba/F3 cells (mouse), P35918 (P35918 20-762 limits assumed, change not shown, form in doubt): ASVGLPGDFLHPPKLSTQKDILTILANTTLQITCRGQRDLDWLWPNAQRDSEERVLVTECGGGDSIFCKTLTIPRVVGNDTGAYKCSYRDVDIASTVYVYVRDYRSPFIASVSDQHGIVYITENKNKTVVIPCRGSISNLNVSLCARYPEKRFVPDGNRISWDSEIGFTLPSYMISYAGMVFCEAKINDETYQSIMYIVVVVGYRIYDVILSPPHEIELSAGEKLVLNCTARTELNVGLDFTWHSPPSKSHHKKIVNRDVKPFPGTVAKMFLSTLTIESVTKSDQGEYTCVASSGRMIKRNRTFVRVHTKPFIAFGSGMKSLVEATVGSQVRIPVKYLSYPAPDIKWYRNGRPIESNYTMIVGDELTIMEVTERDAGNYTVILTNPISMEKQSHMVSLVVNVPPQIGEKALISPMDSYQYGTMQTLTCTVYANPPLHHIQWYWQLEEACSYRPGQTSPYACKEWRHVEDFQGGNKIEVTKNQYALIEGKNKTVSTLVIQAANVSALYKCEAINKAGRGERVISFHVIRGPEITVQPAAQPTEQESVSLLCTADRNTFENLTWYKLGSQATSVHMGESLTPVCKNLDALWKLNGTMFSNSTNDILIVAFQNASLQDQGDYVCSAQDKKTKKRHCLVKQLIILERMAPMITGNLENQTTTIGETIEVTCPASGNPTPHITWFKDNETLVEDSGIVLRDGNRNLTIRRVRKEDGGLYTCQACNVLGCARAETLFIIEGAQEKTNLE
binder,measurement,setting,value
B1,"activity in VEGFR-2 bioassay (Ba/F3 cell survival and proliferation, tritiated-thymidine incorporation)",[1],70 fold
same,"activity in VEGFR-3 bioassay (Ba/F3 cell survival and proliferation, tritiated-thymidine incorporation)",[2],70 fold
